{"source": "the supplement of paper PMC6379048", "key": {"[1]": {"molecular_target": "T1, SKIV2L2 (UniProt P42285)", "T1 sequence": "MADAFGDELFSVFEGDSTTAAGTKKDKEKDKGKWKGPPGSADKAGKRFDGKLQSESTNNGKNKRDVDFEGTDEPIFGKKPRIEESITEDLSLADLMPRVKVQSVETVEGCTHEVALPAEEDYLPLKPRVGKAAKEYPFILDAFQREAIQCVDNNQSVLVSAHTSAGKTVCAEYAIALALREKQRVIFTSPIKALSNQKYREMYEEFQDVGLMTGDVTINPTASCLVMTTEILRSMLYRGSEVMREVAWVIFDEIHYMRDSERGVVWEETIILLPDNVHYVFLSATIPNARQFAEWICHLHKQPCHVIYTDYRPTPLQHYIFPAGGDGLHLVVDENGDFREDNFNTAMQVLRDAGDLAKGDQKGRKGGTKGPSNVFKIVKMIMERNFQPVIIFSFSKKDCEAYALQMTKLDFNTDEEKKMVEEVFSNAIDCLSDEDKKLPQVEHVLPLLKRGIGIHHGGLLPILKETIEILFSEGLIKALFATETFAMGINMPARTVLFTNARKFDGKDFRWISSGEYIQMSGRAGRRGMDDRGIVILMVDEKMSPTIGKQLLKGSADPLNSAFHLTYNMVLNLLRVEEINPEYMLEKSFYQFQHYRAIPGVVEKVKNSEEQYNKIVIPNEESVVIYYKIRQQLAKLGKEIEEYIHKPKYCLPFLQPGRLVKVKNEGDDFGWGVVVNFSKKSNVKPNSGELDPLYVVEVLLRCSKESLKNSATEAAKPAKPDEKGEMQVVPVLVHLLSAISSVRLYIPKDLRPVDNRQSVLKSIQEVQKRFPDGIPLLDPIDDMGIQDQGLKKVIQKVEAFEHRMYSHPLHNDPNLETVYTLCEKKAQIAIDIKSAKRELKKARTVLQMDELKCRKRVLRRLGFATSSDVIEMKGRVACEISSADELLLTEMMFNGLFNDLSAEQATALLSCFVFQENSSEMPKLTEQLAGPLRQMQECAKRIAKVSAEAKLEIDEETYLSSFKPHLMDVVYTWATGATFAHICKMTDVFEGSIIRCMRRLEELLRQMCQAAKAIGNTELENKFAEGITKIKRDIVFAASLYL", "experiment": "EC50 of free RNA motif oligo competing protein binding to immobilised probe", "method_in_brief": "(§1)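 HEK293-FT lysate (2.5 mg protein/well) was treated with free RNA oligos (0 nM to 30 μM) for 1 h at 4°C, then with the same oligos on NHS-Sepharose beads for 30 min at 4°C. Bound proteins were quantified by label-free LC-MS/MS relative to the control. EC50 came from a four-parameter log-logistic fit, and Kd is EC50 times a protein-dependent depletion factor.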"}, "[2]": {"molecular_target": "DHX15 (UniProt O43143)", "sequence (O43143 whole entry)": "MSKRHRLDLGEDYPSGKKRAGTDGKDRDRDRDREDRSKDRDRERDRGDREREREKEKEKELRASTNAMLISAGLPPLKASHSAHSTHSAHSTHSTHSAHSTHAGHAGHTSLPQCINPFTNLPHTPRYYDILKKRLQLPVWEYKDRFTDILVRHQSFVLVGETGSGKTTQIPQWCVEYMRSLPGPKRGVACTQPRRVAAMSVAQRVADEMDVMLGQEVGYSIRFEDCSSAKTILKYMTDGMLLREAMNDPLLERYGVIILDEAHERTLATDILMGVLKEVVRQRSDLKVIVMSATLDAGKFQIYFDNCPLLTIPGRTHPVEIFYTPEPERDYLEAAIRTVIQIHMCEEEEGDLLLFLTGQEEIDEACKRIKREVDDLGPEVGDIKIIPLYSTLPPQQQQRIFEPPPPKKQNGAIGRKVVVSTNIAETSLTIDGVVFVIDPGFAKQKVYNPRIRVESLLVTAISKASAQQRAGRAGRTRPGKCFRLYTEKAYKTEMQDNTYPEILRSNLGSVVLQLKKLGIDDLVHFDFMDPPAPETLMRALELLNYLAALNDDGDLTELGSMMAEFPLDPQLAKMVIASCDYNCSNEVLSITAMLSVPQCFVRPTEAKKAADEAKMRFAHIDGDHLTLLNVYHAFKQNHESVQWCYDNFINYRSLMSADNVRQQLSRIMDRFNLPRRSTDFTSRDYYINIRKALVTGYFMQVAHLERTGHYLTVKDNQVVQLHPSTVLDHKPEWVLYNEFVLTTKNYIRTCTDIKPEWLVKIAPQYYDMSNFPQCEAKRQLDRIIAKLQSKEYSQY", "experiment": "EC50 of free RNA motif oligo competing protein binding to immobilised probe", "method_in_brief": "as §1"}, "[3]": {"molecular_target": "T2, CELF1 (UniProt Q92879)", "T2 sequence": "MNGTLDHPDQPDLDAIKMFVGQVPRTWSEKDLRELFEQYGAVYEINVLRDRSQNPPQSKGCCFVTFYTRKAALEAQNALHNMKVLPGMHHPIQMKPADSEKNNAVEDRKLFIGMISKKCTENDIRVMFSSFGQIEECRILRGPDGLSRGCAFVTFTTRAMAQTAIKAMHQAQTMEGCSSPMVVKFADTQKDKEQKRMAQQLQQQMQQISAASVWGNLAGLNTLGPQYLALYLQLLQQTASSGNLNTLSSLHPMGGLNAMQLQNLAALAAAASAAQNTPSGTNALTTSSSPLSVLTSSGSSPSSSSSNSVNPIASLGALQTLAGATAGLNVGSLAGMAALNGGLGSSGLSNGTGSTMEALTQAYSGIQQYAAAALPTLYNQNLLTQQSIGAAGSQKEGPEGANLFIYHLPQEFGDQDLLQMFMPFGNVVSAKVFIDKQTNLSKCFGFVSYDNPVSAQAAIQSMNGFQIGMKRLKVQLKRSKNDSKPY", "experiment": "EC50 of free RNA motif oligo competing protein binding to immobilised probe", "method_in_brief": "as §1"}, "[4]": {"molecular_target": "T3, CELF2 (UniProt O95319)", "T3 sequence": "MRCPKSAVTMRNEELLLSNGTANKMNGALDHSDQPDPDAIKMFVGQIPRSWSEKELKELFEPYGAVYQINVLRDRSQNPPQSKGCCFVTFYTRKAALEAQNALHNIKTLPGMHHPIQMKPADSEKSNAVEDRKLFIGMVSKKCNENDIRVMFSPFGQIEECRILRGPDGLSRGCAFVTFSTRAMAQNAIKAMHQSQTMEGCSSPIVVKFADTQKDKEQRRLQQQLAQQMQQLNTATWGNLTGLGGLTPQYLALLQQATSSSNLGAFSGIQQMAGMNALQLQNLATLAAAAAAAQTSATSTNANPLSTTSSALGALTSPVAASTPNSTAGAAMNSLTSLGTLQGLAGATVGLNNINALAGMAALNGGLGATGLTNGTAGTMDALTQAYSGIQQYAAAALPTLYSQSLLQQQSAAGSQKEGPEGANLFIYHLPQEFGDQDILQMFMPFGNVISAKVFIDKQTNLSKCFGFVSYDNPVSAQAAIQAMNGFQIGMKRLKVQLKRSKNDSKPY", "experiment": "EC50 of free RNA motif oligo competing protein binding to immobilised probe", "method_in_brief": "as §1"}, "[5]": {"molecular_target": "T1, SKIV2L2", "experiment": "Kd (EC50 corrected by depletion factor)", "procedure": "(§2)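 Competition-binding assay: HEK293-FT cell lysate (2.5 mg protein) pre-incubated 1 h at 4°C with free motif-containing RNA oligos (0 to 30 µM, 12 doses), then pulled down with the same 5'-amino-C6 RNA oligos immobilised on NHS-Sepharose beads (30 min, 4°C). Bound proteins were quantified by label-free LC-MS/MS and normalised to the water control. EC50 came from a four-parameter log-logistic fit; Kd = EC50 x depletion factor. Random/reversed control probes are dropped.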"}, "[6]": {"molecular_target": "T2, CELF1", "experiment": "Kd (EC50 corrected by depletion factor)", "procedure": "as §2"}, "[7]": {"molecular_target": "T3, CELF2", "experiment": "Kd (EC50 corrected by depletion factor)", "procedure": "as §2"}}}
{"sequence": "AAUAAA", "values": [{"measurement": "EC50", "setting": "[1]", "result": 2880, "unit": "nM"}, {"measurement": "EC50", "setting": "[2]", "result": 2150, "unit": "nM"}, {"measurement": "EC50", "setting": "[3]", "result": 667, "unit": "nM"}, {"measurement": "EC50", "setting": "[4]", "result": 1250, "unit": "nM"}, {"measurement": "Kd", "setting": "[5]", "result": 393, "unit": "nM"}, {"measurement": "Kd", "setting": "[6]", "result": 162, "unit": "nM"}, {"measurement": "Kd", "setting": "[7]", "result": 114, "unit": "nM"}]}
{"sequence": "CUGUCCU", "values": [{"measurement": "EC50", "setting": "[1]", "result": 3470, "unit": "nM"}, {"measurement": "EC50", "setting": "[2]", "result": 757, "unit": "nM"}, {"measurement": "EC50", "setting": "[3]", "result": 6720, "unit": "nM"}, {"measurement": "EC50", "setting": "[4]", "result": 2670, "unit": "nM"}, {"measurement": "Kd", "setting": "[5]", "result": 2450, "unit": "nM"}, {"measurement": "Kd", "setting": "[6]", "result": 3660, "unit": "nM"}, {"measurement": "Kd", "setting": "[7]", "result": 948, "unit": "nM"}]}
{"sequence": "UAUUUAU", "values": [{"measurement": "EC50", "setting": "[1]", "result": 619, "unit": "nM"}, {"measurement": "EC50", "setting": "[2]", "result": 576, "unit": "nM"}, {"measurement": "EC50", "setting": "[3]", "result": 555, "unit": "nM"}, {"measurement": "EC50", "setting": "[4]", "result": 517, "unit": "nM"}, {"measurement": "Kd", "setting": "[5]", "result": 202, "unit": "nM"}, {"measurement": "Kd", "setting": "[6]", "result": 350, "unit": "nM"}, {"measurement": "Kd", "setting": "[7]", "result": 283, "unit": "nM"}]}
